One assay concerns the target T1, linear hepta-ubiquitin (UniProt P0CG48 1-76; P0CG48 1-76; P0CG48 1-76; P0CG48 1-76; P0CG48 1-76; P0CG48 1-76; …).
T1 construct: ubiquitin, unit 1 of 7; ubiquitin, unit 2 of 7; ubiquitin, unit 3 of 7; ubiquitin, unit 4 of 7; ubiquitin, unit 5 of 7; ubiquitin, unit 6 of 7; ubiquitin, unit 7 of 7; The reagents name a supplier only for the tetra-ubiquitins; also called linear ubiquitin chains; linear polyubiquitin chains
In words: co-IP; purified recombinant HA-N4BP1 or domain deletion forms incubated with ubiquitin chains in assay buffer (50 mM Tris-HCl pH 7.4, 150 mM NaCl, 1 mM dithiothreitol) for 2 h at 4 °C; immunoprecipitation with anti-HA (mouse IgG as control); immunoblot. Conditions: both partners purified.

Another assay has as its target T2, linear tetra-ubiquitin (UniProt P0CG48 1-76; P0CG48 1-76; P0CG48 1-76; P0CG48 1-76).
T2 construct: ubiquitin, unit 1 of 4; ubiquitin, unit 2 of 4; ubiquitin, unit 3 of 4; ubiquitin, unit 4 of 4; also called linear tetra-ubiquitin chains; source: bought: LifeSensors (recombinant)
Described as above. The conditions noted are these: both partners purified.

T2 sequence (P0CG48 1-304, one chain of several): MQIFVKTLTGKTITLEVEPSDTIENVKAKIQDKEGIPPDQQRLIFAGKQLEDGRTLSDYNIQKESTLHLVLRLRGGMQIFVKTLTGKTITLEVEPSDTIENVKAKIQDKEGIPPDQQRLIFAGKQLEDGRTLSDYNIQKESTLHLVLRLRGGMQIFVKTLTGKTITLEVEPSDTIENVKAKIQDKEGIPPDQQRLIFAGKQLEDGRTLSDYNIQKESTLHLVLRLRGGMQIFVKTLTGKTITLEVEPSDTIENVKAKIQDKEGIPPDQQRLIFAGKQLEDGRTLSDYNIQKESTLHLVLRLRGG
T1 sequence (P0CG48 1-532, one chain of several): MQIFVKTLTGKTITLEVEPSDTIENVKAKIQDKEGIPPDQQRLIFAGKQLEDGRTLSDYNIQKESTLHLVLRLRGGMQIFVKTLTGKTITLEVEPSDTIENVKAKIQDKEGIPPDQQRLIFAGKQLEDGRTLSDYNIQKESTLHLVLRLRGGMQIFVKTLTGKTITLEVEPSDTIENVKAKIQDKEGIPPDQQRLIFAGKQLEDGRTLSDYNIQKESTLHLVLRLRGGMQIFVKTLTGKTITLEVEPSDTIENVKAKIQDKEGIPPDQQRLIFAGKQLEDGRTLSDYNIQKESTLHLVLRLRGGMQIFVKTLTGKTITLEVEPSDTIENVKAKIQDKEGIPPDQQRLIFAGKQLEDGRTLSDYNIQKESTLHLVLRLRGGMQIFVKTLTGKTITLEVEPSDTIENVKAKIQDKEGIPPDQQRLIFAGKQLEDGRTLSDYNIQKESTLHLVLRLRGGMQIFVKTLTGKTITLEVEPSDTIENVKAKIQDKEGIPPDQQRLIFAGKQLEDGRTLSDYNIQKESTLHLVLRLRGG

B1: HA-tagged N4BP1 (full-length) (natural protein, UniProt O75113 1-896, looked up)
chain: MAARAVLDEFTAPAEKAELLEQSRGRIEGLFGVSLAVLGALGAEEPLPARIWLQLCGAQEAVHSAKEYIKGICEPELEERECYPKDMHCIFVGAESLFLKSLIQDTCADLCILDIGLLGIRGSAEAVVMARSHIQQFVKLFENKENLPSSQKESEVKREFKQFVEAHADNYTMDLLILPTSLKKELLTLTQGEENLFETGDDEVIEMRDSQQTEFTQNAATGLNISRDETVLQEEARNKAGTPVSELTKQMDTVLSSSPDVLFDPINGLTPDEEALSNERICQKRRFSDSEERHTKKQFSLENVQEGEILHDAKTLAGNVIADLSDSSADSENLSPDIKETTEEMEYNILVNFFKTMGYSQEIVEKVIKVYGPSTEPLLLLEEIEKENKRFQEDREFSAGTVYPETNKTKNKGVYSSTNELTTDSTPKKTQAHTQQNMVEKFSQLPFKVEAKPCTSNCRINTFRTVPIEQKHEVWGSNQNYICNTDPETDGLSPSVASPSPKEVNFVSRGASSHQPRVPLFPENGLHQQPEPLLPNNMKSACEKRLGCCSSPHSKPNCSTLSPPMPLPQLLPSVTDARSAGPSDHIDSSVTGVQRFRDTLKIPYKLELKNEPGRTDLKHIVIDGSNVAITHGLKKFFSCRGIAIAVEYFWKLGNRNITVFVPQWRTRRDPNVTEQHFLTQLQELGILSLTPARMVFGERIASHDDRFLLHLADKTGGIIVTNDNFREFVNESVSWREIITKRLLQYTFVGDIFMVPDDPLGRSGPRLEEFLQKEVCLRDMQPLLSALPNVGMFDPSFRVPGTQAASTSHQPPTRIQGAPSSHWLPQQPHFPLLPALPSLQQNLPMPAQRSSAETNELREALLKIFPDSEQRLKIDQILVAHPYMKDLNALSAMVLD
notes: the vector of the other experiments is only called a mammalian expression vector; also called HA-N4BP1; F.L; source: HEK293T or N4BP1-/- HEK293T, transfected, in lysate; also overexpressed in HEK293T and purified (immunoprecipitation, HA peptide elution, Superdex 200 gel filtration); not shown: HA, N-terminal, kept
Regarding B1, the binding result in the assay with linear hepta-ubiquitin and with linear tetra-ubiquitin was “binds” in each case.

Source of the values: paper PMC7925594 (Nature Communications, 2021).
